Experiment: yeast display, Sf9 membrane polyspecificity reagent, FACS + sequencing; frameworks hold sequencing errors
How it was run: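 Nanobodies from a synthetic yeast display library (Saccharomyces cerevisiae BJ5465), induced 36–48 hours with galactose, were stained 1 hour at 4 °C with 10% biotinylated, detergent-solubilized Sf9 membrane reagent, enriched on streptavidin microbeads, then FACS-sorted. Anti-HA (expression) and streptavidin (reagent binding) fluorescence set low and high (top ~1%) gates. Polyreactivity labels come from the gate of origin. Genes were colony-PCR amplified, MiSeq 2 × 250 sequenced and filtered by CDR length.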

Sequence	polyreactivity (PSR sort gate)
QVQLVESGGGLVQAGGSLRLSCAASGRTFGSNTMGWYRQAPGKERELVAAISGTGTSTYYADSVKGRFTISRDNAKNTVYLQMNSLKQEDTAVYYCAAGWYKYLFQPHDYWGQGTQVTVSS	low polyreactivity
QVHLVESGGGLVQAGGSLRLICAATGFIFGSYAMGWYRQAPGKERELVAAINWSGGNTYYADSVKGRFTISRDNEKNTVYLQMNSLKPEDTAVYYCAAQYVTSRFDYWGQGTQVTVSS	high polyreactivity
QVHLVESGGVLLQAGGSLRLSCAASGFIFKWNAMGWYRQAPGKERELVAAISWHGGSTNYADSVKGRFTISRDNAKNTVYLQMNSLKPEDTAVYYCAKQQSPYYPSTLDYWGQGTQVTVSS	high polyreactivity
QVQLVESGGGLVQAGGSLRLSCAASGRTFGSNAMGWFIQAPGKERELVAAISSSDSTNYADSVKGRFTISRDNAKNTVYLQMNSLKPEETAVYYCNAGHPVRSPGYDYWGQGTQVTVSS	low polyreactivity
QVQLVESVVGLVQAGGILRLSCSASGRTFVHYTMGWYRQAPGKETELVAAISGTGTSTYYADSVKGRFTISRDNAKNTVYLQMNSLKPEDTAVYYCARDPYFGFHMGYPRRDYWGQGTHVTVSS	low polyreactivity
QVQLVESGGGLVQAGGSLRLSCAASGRIYAYYPMGWYRQAPGKERELVAAISRGGGSTSYADSVKGRFTISRDNAKNTVYLQMNSLKPEDTAVYYCAADTRSYLVFTRYFRAYRRYDYWGQGTQVTVSS	low polyreactivity
QVQLVESGGGLVQAGGSLRLSCAASGSIFFDNAMGWYRQAPGKERELVATINSGGNTHYADSVKGRFTISRDNAKNTVYLQMNSLKPEDTAVYYCAADFPSDLVDGYNYWGQGTQVTVSS	low polyreactivity
QVQLVESGGGLVQAGGSLRLSCAASGTMGWYRQAPGKERELVAANSSSDRTSYADSVKGRFTISRDNAKNTVYLQMNSLKPEDTAVYYCNASTVFAWRTSTLKLFYTAHDYWGQGTQVTVSS	low polyreactivity
QVQLVESGGGLVQAGGRLRLSSAASGSTFPYNAMGWYRQAPGKERELVADITSGSSTYYADSGKGRFTISRDNAKNTVYLQMNSLKPEDTAVYYCAATYFVWLNAGGRGYWGQGTQVTVSS	low polyreactivity
QVQLVESWGGLVQAGGSLRLSCAASGITFFTYAMGWYRQAPGKERELVAGISKTGGRSYYADSVKGRFTISRDNSKNTVYLQMNSLKPDDTAVYFCAAYFRSDYGYWGQGNQVTVSS	high polyreactivity
QVQLVESGGGLVQAGGSLRLSCAASGSILWSYAMGWYRQAPGKERELVAAITSGGSTYYADSVKGRFTISRDNAKNTVYLQMNSLKPEDTAVYYCAADRWRDFWFNEEYWGQGTQVTVSS	high polyreactivity
QVQLVESGGGKVKAGGSLRISCAASGRTYRYAMGWYRQAPGKERELVAAITSGGRTNYADSVKGRFTISRDNAKNTVYLQMNSLKPEDTAVYYCAAQWYTVITSWYGYWGQGTQVTVSS	low polyreactivity
QVQLVESGGGLVQAGGSLRLSCAASGRTFYIYAMGWYRQAPGKERELVAAITWSGGSSTYYADSVKGRFTISRDNAKNTVYLQMNSLKPEDTAVYYCAAETHYYWYEQYDYWGQGTQVTVSS	high polyreactivity
QVQLVESGGGIVQAGGSLRLRCAASGSTFYVYHMGWDRPAPGKERELVAAISSGAGSTYYADSVKGRFTISRDNAKNTVYLQMNSLKRKIPRSITALLFTVNGGGSRSHDYWAQGTQVTVSS	low polyreactivity
QVQLVESGGGLVQAGGSLRLSCDASGSTRIYAMGWYTQAPGKERELVAAISWTGGRTYYADSVKGRFTISRDNAKYTVYLQMNSLKPEDTAVYYCAAKGSGRDYWGQGTLVTVSS	high polyreactivity
QVQLVESGGGLVQAGGSLRLSCAASGRTFTLNAMGWYRQAPGKERELVATISRRGGSTYYADSVKGRFTISRDNAKNTVYLQMNSLKPEDTAVYYCNVDRLGQRYDYWGQGTQVTVSS	low polyreactivity
QDQLVESGGGLVQAGRSLRLSCAASGSIFTVYAMGWYRQAPGKEWELVASISTGGSTNYADSVKGRFTISRDNAKNTVYLPMISLKPEDTAVYYCAATGWAYGYGYGYWGQGTQVTVSS	low polyreactivity
QVQLVESGGGLVQAGGSLRLSCAASGSTFGRYAMGWYRQAPGKERELVAAITSDTGHTNYADSVKGRFTISRDNAKNTVYLQMNSLKPEDTAVYYCAAANFWVLWGHVIGNYDSWGQGTQVTVSS	low polyreactivity
QVQLVESGGGVVQSRGSLRLTCAASGRIFLQYAMGWYRQAPWKERELVAAIEWSGGRTYYADSVKGRFTISRDNAKNTVYLQMNSLTPEDTAVYYCAARRISGSAVRGSRGYWGQGTQVTVSS	high polyreactivity
QVQLVESGGGLVQAGGSLRLSCAATGRIFRVYAMGWYRQAPGKVRELVAAISSGGSTNYADSVKGGFTISRDNAKNTVYLQMKSLKPEDTAVYYCAADYWYRLFWYYGAPLDYWGQGTQVTVSS	low polyreactivity
QVQLVESGGGLVQAGGSLRLSCAASGSIFRYNTMGWYRQATGKERELDATITRRGGSTYYADSVKGRFTISRDNAKNTVYLQMNSLKPEDTAVYYCNADNFGGPFNYWGQGTQVTVSS	low polyreactivity
QVQLVESGGGLVQAGGSLRLSCAASGFTFRHYAMGWYRQAPGKARQLVAAITKSGDSTYYADSVKWRFTISRDIAKKTVYLQMNSLNPEDTEVYYCATPYTLSRADNYWGQGTQVTVSS	low polyreactivity

Sequence	polyreactivity (PSR sort gate)
QVQLVESGGGLVQAGCSLRLSCAASGYIFYIYAMGWYRQAPGKERELVAAITWSGDTTYYADSVKGRFTISRDNAKNTVYLQMNSLKPEDTAVYNCATYYYYPSWYLLYGEYNYWGQGTQVTVSS	low polyreactivity
QVQLVESGGGLVQAGGSLRLSCAASGRIFALNVMGWYRQAPVKERELFAVINRSGNTNYADSVKGRFTSSRDNAKNTVYLQMNSLKPEDTAVYYCAARRVGYGTDRYYGYDSWGQGTQVTVSS	high polyreactivity
QVQLLESGGGLVQAGGSLRFTGAASGSTIAGNAMVWYRHEPGKERELVAVITRGGSTNYADSVKGRFTISRDNAKNNVYLQMNSLKPEDTAVYYCARYRFLLDYWRGGYYWGQGTQVTVSS	high polyreactivity
QVQHVESGGGLVQAGGSLRLSCAASGRTFFSYAMGLYRHAPGKERELVAAITYSGGRTYYADSVKGRFTISRDNAKNTVYLQMNSLKPEDTAVYYCAATHYREKIDYWGQGTQVTVSS	low polyreactivity
QVQLVESGGGLVQAGGSLRLSCAASGSILYLYAMGWYRPAPGKERELVAAITRIGGSTYYADSVKGRFTISRDNAKNTVYLQMNSLKPEDTAVYYCAAGGTARDDSWGQGTQVTVSS	low polyreactivity
QVQLVESGGGLVQAGGSLRLSCAASGIIFRYYTMGWYRQAPGKERELVAAISWGGGSTYYADSVKGRFTISRDYAKNTVYLQMNSLKPEDTAVYYCAAEGLTYYNYREWLYYYWGQGTQVTVSS	high polyreactivity
QVQLVESGGGLVQAGGSLRLSCAASGRTFIYYAMGWYRQAPGKERELVAGITYSVGSTYYADSVKGRFTISRDNEKNTVYLQMNSLKPEDTAVYYCAYYYWGQGTQVTVSS	low polyreactivity
QVQLVESGGGLVQAGGSLRLSCAASGYTIRNYAMGWYRQAPGTERELVAAIRGSGGSTYYADSVKGRFTISRDNAKNTVYLQMNSLKPEDTAVDYCNADQLVWQRYGVLYEYDYWGQGTQVTVSS	high polyreactivity
QVQLVESGGGIVQAGGSLRLSCAASGSTFNYNAMGWYRQAPGKERELVAAITRSGDSTYADSVKGRFTISRDNAKNTFYLQMNSLKPEYTAVYYCAKRYTHYSFRRFDYWGQGSQVTVSS	low polyreactivity
QVQLVESGGGLVQAGGSLRLSCAASGSIFHGYAMGWYRQAPGKERELVAAITYSGGRTYYADSVKGRFTISRDNAKNTVYLQMNSLKPEDTAVYYCAALTRRVKKYDYWGQGTQVTVSS	high polyreactivity
QVQLVESGGGLVQAGGSLRLSCAASGYIFPGNAMGWYRQAPGKERELVAAISSRGGRTYYADSVKGRFTISRDNAKNTVYLQMNSLKPEDTAVYYCAKGGKVGSTLEYDYWGQGTQVTVSS	high polyreactivity
QVQLVESGGGLVQAGGSLRLSCAASGRTFIVNTMGRYRQAPGKERELVAAITARGGRTYYADSVKGRFTISRDNAKNTVYLQMNSLKPEDTAVYYCNARTPPREAERYYWGLGTQVTVSS	low polyreactivity
HVQLGESGGGLVQAGGSLRLSCAASGFIFTAYVMGWYRQAPGKERELVAAISRSGGSTYYADSVKGRFTISRDNAKHTVYLQMNSLKPEDTAVYYCAKLRRDARYDYWGQGTQVTVSS	high polyreactivity
QVKLVESGAGLVHAGGSLRLSCAASGFIFFYYAMGRYRQAPGKERYLVATISANGGNTYYADSVKGRFTISRDNAKNTVYLQMNRLKPEDTAVYYCARYTWYLRDWQWYYWGDEDYWGQGTQVTVSS	high polyreactivity
QVQLVESGGGLVPAGGSLRLSCAASGSTFVSKAMGWYRQAPGKERELLAAISTSGGSTYNADSVKGRVTISGDNAKNTVYLQMNSLKPEDTAVYYCAKLLAGGFRIWQDYDYWGQGTQVTVSS	low polyreactivity
QVQHVESGGGIVQAGGSLRLSCAASGITFYGNTMGWYRPARGKERELVARISSGGSTNYADSVKGRFTISREKAKNSGYLQMNSLKPEDTAVYYCAVKQYWYIWSGYGYDYWGQGTQVTVSS	high polyreactivity
QVQLVESGGGLVQAGGSLRLSCAASGRTFVSYAMGWYRQAPGKETELVAAIDSSGTSTYYADSVKGRFTISRDNAKNTVYLQMNSLKPEDTAVYYCAKAWPDHWYSRYDYWGQGTQVTVSS	low polyreactivity
QVQLVESGGGLVQAGGSLRLSCAASGSIFAGYAMGWYRQAPGKERELVAAISWSGGGTYYADSVKGRFTISRDNAKNTVYLQMNSLKPEDTAVYYCNAYGYRHRGNGYWGQGTQVTVSS	high polyreactivity
QDQIVESCGGLVQAGGSLRLSCASSGNIIYPKAMGWYRQAPGKERDLVAAISTSRGSTYYADSVKGRFTISRDNAKNTVYLQMNSLKPEDTAVYYCNRRGPYGYKAWAIGTIGDLDYWGQGTQVTVSS	low polyreactivity
QVQLVESGGGLVQAGGSLRLSCGASGRTFRKYAMGWYRQAPGKERELVASITYSGGSTYYADSVKGRFTISRDNAKNTVYLQMNSLKPEDTAVYYCAARLHWNRYPQTLYDYWGLGTQVTVSS	high polyreactivity
QVQLVESGGGLVQAGGSLRLSCAASGSIFRYYVMGWYRQAPGKERELVAAITGGGGSTYYADSVKGRFTISRDNAKNTVYLQMNSLKPEDTAVYYCATATYVGVYWEYDYWGQGTQVTVSS	low polyreactivity
